T1: TIGIT (human)
T1 chain: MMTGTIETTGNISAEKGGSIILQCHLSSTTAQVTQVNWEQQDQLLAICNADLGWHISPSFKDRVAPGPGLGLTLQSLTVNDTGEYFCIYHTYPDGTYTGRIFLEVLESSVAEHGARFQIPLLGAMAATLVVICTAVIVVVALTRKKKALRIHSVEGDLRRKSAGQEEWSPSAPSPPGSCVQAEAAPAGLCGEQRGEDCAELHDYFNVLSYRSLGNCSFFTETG

B1: variant CD155 IgV-Fc D8G, P18S, M36I, V38A, H49Q, A76E, F91S, L104M, T107A, R113W (Fc fusion)
chain: WPPPGTGGVVVQAPTQVSGFLGDSVTLPCYLQVPNIEATHVSQLTWARQGESGSMAVFHQTQGPSYSESKRLEFVEARLGAELRNASLRMSGLRVEDEGNYTCMFVAFPQGSWSVDIWLRVLGSGGGGSEPKSSDKTHTCPPCPAPEAEGAPSVFLFPPKPKDTLMISRTPEVTCVVVDVSHEDPEVKFNWYVDGVEVHNAKTKPREEQYNSTYRVVSVLTVLHQDWLNGKEYKCKVSNKALPAPIEKTISKAKGQPREPQVYTLPPSRDELTKNQVSLTCLVKGFYPSDIAVEWESNGQPENNYKTTPPVLDSDGSFFLYSKLTVDKSRWQQGNVFSCSVMHEALHNHYTQKSLSLSPGK
B2: variant CD155 IgV-Fc P18S, S52P, S65A, S67V, L79P, F91S, L104M, T107S, R113W (Fc fusion)
chain: WPPPGTGDVVVQAPTQVSGFLGDSVTLPCYLQVPNMEVTHVSQLTWARHGEPGSMAVFHQTQGPAYVESKRLEFVAARPGAELRNASLRMSGLRVEDEGNYTCMFVSFPQGSWSVDIWLRVLGSGGGGSEPKSSDKTHTCPPCPAPEAEGAPSVFLFPPKPKDTLMISRTPEVTCVVVDVSHEDPEVKFNWYVDGVEVHNAKTKPREEQYNSTYRVVSVLTVLHQDWLNGKEYKCKVSNKALPAPIEKTISKAKGQPREPQVYTLPPSRDELTKNQVSLTCLVKGFYPSDIAVEWESNGQPENNYKTTPPVLDSDGSFFLYSKLTVDKSRWQQGNVFSCSVMHEALHNHYTQKSLSLSPGK
B3: variant CD155 IgV-Fc T15I, P18T, L79P, F91S, L104M, G111R (Fc fusion)
chain: WPPPGTGDVVVQAPIQVTGFLGDSVTLPCYLQVPNMEVTHVSQLTWARHGESGSMAVFHQTQGPSYSESKRLEFVAARPGAELRNASLRMSGLRVEDEGNYTCMFVTFPQRSRSVDIWLRVLGSGGGGSEPKSSDKTHTCPPCPAPEAEGAPSVFLFPPKPKDTLMISRTPEVTCVVVDVSHEDPEVKFNWYVDGVEVHNAKTKPREEQYNSTYRVVSVLTVLHQDWLNGKEYKCKVSNKALPAPIEKTISKAKGQPREPQVYTLPPSRDELTKNQVSLTCLVKGFYPSDIAVEWESNGQPENNYKTTPPVLDSDGSFFLYSKLTVDKSRWQQGNVFSCSVMHEALHNHYTQKSLSLSPGK
B4: variant CD155 IgV-Fc V9L, P18T, Q62R, L79P, F91S, L104M, G111R (Fc fusion)
chain: WPPPGTGDLVVQAPTQVTGFLGDSVTLPCYLQVPNMEVTHVSQLTWARHGESGSMAVFHQTRGPSYSESKRLEFVAARPGAELRNASLRMSGLRVEDEGNYTCMFVTFPQRSRSVDIWLRVLGSGGGGSEPKSSDKTHTCPPCPAPEAEGAPSVFLFPPKPKDTLMISRTPEVTCVVVDVSHEDPEVKFNWYVDGVEVHNAKTKPREEQYNSTYRVVSVLTVLHQDWLNGKEYKCKVSNKALPAPIEKTISKAKGQPREPQVYTLPPSRDELTKNQVSLTCLVKGFYPSDIAVEWESNGQPENNYKTTPPVLDSDGSFFLYSKLTVDKSRWQQGNVFSCSVMHEALHNHYTQKSLSLSPGK
B5: variant CD155 IgV-Fc P18T, E37G, G53R, Q62K, L79P, F91S, E98D, L104M, T107M (Fc fusion)
chain: WPPPGTGDVVVQAPTQVTGFLGDSVTLPCYLQVPNMGVTHVSQLTWARHGESRSMAVFHQTKGPSYSESKRLEFVAARPGAELRNASLRMSGLRVEDDGNYTCMFVMFPQGSRSVDIWLRVLGSGGGGSEPKSSDKTHTCPPCPAPEAEGAPSVFLFPPKPKDTLMISRTPEVTCVVVDVSHEDPEVKFNWYVDGVEVHNAKTKPREEQYNSTYRVVSVLTVLHQDWLNGKEYKCKVSNKALPAPIEKTISKAKGQPREPQVYTLPPSRDELTKNQVSLTCLVKGFYPSDIAVEWESNGQPENNYKTTPPVLDSDGSFFLYSKLTVDKSRWQQGNVFSCSVMHEALHNHYTQKSLSLSPGK
B6: variant CD155 IgV-Fc P18T, M36T, S65A, S67E, L79Q, A81T, F91S, G111R (Fc fusion)
chain: WPPPGTGDVVVQAPTQVTGFLGDSVTLPCYLQVPNTEVTHVSQLTWARHGESGSMAVFHQTQGPAYEESKRLEFVAARQGTELRNASLRMSGLRVEDEGNYTCLFVTFPQRSRSVDIWLRVLGSGGGGSEPKSSDKTHTCPPCPAPEAEGAPSVFLFPPKPKDTLMISRTPEVTCVVVDVSHEDPEVKFNWYVDGVEVHNAKTKPREEQYNSTYRVVSVLTVLHQDWLNGKEYKCKVSNKALPAPIEKTISKAKGQPREPQVYTLPPSRDELTKNQVSLTCLVKGFYPSDIAVEWESNGQPENNYKTTPPVLDSDGSFFLYSKLTVDKSRWQQGNVFSCSVMHEALHNHYTQKSLSLSPGK
B7: variant CD155 IgV-Fc P18C, T26M, L44V, M55I, Q62K, L79P, F91S, L104M, T107M (Fc fusion)
chain: WPPPGTGDVVVQAPTQVCGFLGDSVMLPCYLQVPNMEVTHVSQVTWARHGESGSIAVFHQTKGPSYSESKRLEFVAARPGAELRNASLRMSGLRVEDEGNYTCMFVMFPQGSRSVDIWLRVLGSGGGGSEPKSSDKTHTCPPCPAPEAEGAPSVFLFPPKPKDTLMISRTPEVTCVVVDVSHEDPEVKFNWYVDGVEVHNAKTKPREEQYNSTYRVVSVLTVLHQDWLNGKEYKCKVSNKALPAPIEKTISKAKGQPREPQVYTLPPSRDELTKNQVSLTCLVKGFYPSDIAVEWESNGQPENNYKTTPPVLDSDGSFFLYSKLTVDKSRWQQGNVFSCSVMHEALHNHYTQKSLSLSPGK
B8: variant CD155 IgV-Fc V9I, P18T, D23G, L79P, F91S, G111R (Fc fusion)
chain: WPPPGTGDIVVQAPTQVTGFLGGSVTLPCYLQVPNMEVTHVSQLTWARHGESGSMAVFHQTQGPSYSESKRLEFVAARPGAELRNASLRMSGLRVEDEGNYTCLFVTFPQRSRSVDIWLRVLGSGGGGSEPKSSDKTHTCPPCPAPEAEGAPSVFLFPPKPKDTLMISRTPEVTCVVVDVSHEDPEVKFNWYVDGVEVHNAKTKPREEQYNSTYRVVSVLTVLHQDWLNGKEYKCKVSNKALPAPIEKTISKAKGQPREPQVYTLPPSRDELTKNQVSLTCLVKGFYPSDIAVEWESNGQPENNYKTTPPVLDSDGSFFLYSKLTVDKSRWQQGNVFSCSVMHEALHNHYTQKSLSLSPGK
B9: variant CD155 IgV-Fc P18F, T26M, L44V, Q62K, L79P, E82D, F91S, L104M, G111D (Fc fusion)
chain: WPPPGTGDVVVQAPTQVFGFLGDSVMLPCYLQVPNMEVTHVSQVTWARHGESGSMAVFHQTKGPSYSESKRLEFVAARPGADLRNASLRMSGLRVEDEGNYTCMFVTFPQDSRSVDIWLRVLGSGGGGSEPKSSDKTHTCPPCPAPEAEGAPSVFLFPPKPKDTLMISRTPEVTCVVVDVSHEDPEVKFNWYVDGVEVHNAKTKPREEQYNSTYRVVSVLTVLHQDWLNGKEYKCKVSNKALPAPIEKTISKAKGQPREPQVYTLPPSRDELTKNQVSLTCLVKGFYPSDIAVEWESNGQPENNYKTTPPVLDSDGSFFLYSKLTVDKSRWQQGNVFSCSVMHEALHNHYTQKSLSLSPGK
B10: variant CD155 IgV-Fc P18L, K70E, L79P, F91S, V95A, G111R (Fc fusion)
chain: WPPPGTGDVVVQAPTQVLGFLGDSVTLPCYLQVPNMEVTHVSQLTWARHGESGSMAVFHQTQGPSYSESERLEFVAARPGAELRNASLRMSGLRAEDEGNYTCLFVTFPQRSRSVDIWLRVLGSGGGGSEPKSSDKTHTCPPCPAPEAEGAPSVFLFPPKPKDTLMISRTPEVTCVVVDVSHEDPEVKFNWYVDGVEVHNAKTKPREEQYNSTYRVVSVLTVLHQDWLNGKEYKCKVSNKALPAPIEKTISKAKGQPREPQVYTLPPSRDELTKNQVSLTCLVKGFYPSDIAVEWESNGQPENNYKTTPPVLDSDGSFFLYSKLTVDKSRWQQGNVFSCSVMHEALHNHYTQKSLSLSPGK
B11: variant CD155 IgV-Fc V9L, P18L, L79P, M90I, F91S, T102S, L104M, G111R (Fc fusion)
chain: WPPPGTGDLVVQAPTQVLGFLGDSVTLPCYLQVPNMEVTHVSQLTWARHGESGSMAVFHQTQGPSYSESKRLEFVAARPGAELRNASLRISGLRVEDEGNYSCMFVTFPQRSRSVDIWLRVLGSGGGGSEPKSSDKTHTCPPCPAPEAEGAPSVFLFPPKPKDTLMISRTPEVTCVVVDVSHEDPEVKFNWYVDGVEVHNAKTKPREEQYNSTYRVVSVLTVLHQDWLNGKEYKCKVSNKALPAPIEKTISKAKGQPREPQVYTLPPSRDELTKNQVSLTCLVKGFYPSDIAVEWESNGQPENNYKTTPPVLDSDGSFFLYSKLTVDKSRWQQGNVFSCSVMHEALHNHYTQKSLSLSPGK
B12: variant CD155 IgV-Fc P18F, S65A, S67V, F91S, L104M, G111R (Fc fusion)
chain: WPPPGTGDVVVQAPTQVFGFLGDSVTLPCYLQVPNMEVTHVSQLTWARHGESGSMAVFHQTQGPAYVESKRLEFVAARLGAELRNASLRMSGLRVEDEGNYTCMFVTFPQRSRSVDIWLRVLGSGGGGSEPKSSDKTHTCPPCPAPEAEGAPSVFLFPPKPKDTLMISRTPEVTCVVVDVSHEDPEVKFNWYVDGVEVHNAKTKPREEQYNSTYRVVSVLTVLHQDWLNGKEYKCKVSNKALPAPIEKTISKAKGQPREPQVYTLPPSRDELTKNQVSLTCLVKGFYPSDIAVEWESNGQPENNYKTTPPVLDSDGSFFLYSKLTVDKSRWQQGNVFSCSVMHEALHNHYTQKSLSLSPGK
B13: variant CD155 IgV-Fc V9I, V10I, P18S, F20S, T45A, L79P, F91S, L104M, F108Y, G111R, S112V (Fc fusion)
chain: WPPPGTGDIIVQAPTQVSGSLGDSVTLPCYLQVPNMEVTHVSQLAWARHGESGSMAVFHQTQGPSYSESKRLEFVAARPGAELRNASLRMSGLRVEDEGNYTCMFVTYPQRVRSVDIWLRVLGSGGGGSEPKSSDKTHTCPPCPAPEAEGAPSVFLFPPKPKDTLMISRTPEVTCVVVDVSHEDPEVKFNWYVDGVEVHNAKTKPREEQYNSTYRVVSVLTVLHQDWLNGKEYKCKVSNKALPAPIEKTISKAKGQPREPQVYTLPPSRDELTKNQVSLTCLVKGFYPSDIAVEWESNGQPENNYKTTPPVLDSDGSFFLYSKLTVDKSRWQQGNVFSCSVMHEALHNHYTQKSLSLSPGK
B14: variant CD155 IgV-Fc V9I, Q12K, P18F, S65A, S67V, L79P, L104T, G111R, S112I (Fc fusion)
chain: WPPPGTGDIVVKAPTQVFGFLGDSVTLPCYLQVPNMEVTHVSQLTWARHGESGSMAVFHQTQGPAYVESKRLEFVAARPGAELRNASLRMFGLRVEDEGNYTCTFVTFPQRIRSVDIWLRVLGSGGGGSEPKSSDKTHTCPPCPAPEAEGAPSVFLFPPKPKDTLMISRTPEVTCVVVDVSHEDPEVKFNWYVDGVEVHNAKTKPREEQYNSTYRVVSVLTVLHQDWLNGKEYKCKVSNKALPAPIEKTISKAKGQPREPQVYTLPPSRDELTKNQVSLTCLVKGFYPSDIAVEWESNGQPENNYKTTPPVLDSDGSFFLYSKLTVDKSRWQQGNVFSCSVMHEALHNHYTQKSLSLSPGK

Target: T1, TIGIT
Assay: cell-based or functional assay

| IL-2 luciferase reporter, Normalized Fold Change from CD155-ECD, proteins at 50 nM | Binder |
| --- | --- |
| 4 fold | B1 |
| -0.1 fold | B2 |
| 0.4 fold | B3 |
| 7.4 fold | B4 |
| 8.6 fold | B5 |
| -0.9 fold | B6 |
| 1.6 fold | B7 |
| 2 fold | B8 |
| 4 fold | B9 |
| 2.4 fold | B10 |
| 2.4 fold | B11 |
| 0.6 fold | B12 |
| -1.9 fold | B13 |
| 2.3 fold | B14 |

— patent US20230381229A1 (ALPINE IMMUNE SCIENCES, INC., published 2023)
